These results are taken from patent publication US20020168748.

Data set [1] has as its target 1,3-β-glucan synthase (GS) complex (UniProt P38631).
Data set [2] concerns the target PKC1 tagged at its COOH-terminus with the HA epitope (PKC1^HA) (UniProt P24583).

1,3-β-glucan synthase (GS) complex, sequence (P38631 whole entry, looked up, one chain of several): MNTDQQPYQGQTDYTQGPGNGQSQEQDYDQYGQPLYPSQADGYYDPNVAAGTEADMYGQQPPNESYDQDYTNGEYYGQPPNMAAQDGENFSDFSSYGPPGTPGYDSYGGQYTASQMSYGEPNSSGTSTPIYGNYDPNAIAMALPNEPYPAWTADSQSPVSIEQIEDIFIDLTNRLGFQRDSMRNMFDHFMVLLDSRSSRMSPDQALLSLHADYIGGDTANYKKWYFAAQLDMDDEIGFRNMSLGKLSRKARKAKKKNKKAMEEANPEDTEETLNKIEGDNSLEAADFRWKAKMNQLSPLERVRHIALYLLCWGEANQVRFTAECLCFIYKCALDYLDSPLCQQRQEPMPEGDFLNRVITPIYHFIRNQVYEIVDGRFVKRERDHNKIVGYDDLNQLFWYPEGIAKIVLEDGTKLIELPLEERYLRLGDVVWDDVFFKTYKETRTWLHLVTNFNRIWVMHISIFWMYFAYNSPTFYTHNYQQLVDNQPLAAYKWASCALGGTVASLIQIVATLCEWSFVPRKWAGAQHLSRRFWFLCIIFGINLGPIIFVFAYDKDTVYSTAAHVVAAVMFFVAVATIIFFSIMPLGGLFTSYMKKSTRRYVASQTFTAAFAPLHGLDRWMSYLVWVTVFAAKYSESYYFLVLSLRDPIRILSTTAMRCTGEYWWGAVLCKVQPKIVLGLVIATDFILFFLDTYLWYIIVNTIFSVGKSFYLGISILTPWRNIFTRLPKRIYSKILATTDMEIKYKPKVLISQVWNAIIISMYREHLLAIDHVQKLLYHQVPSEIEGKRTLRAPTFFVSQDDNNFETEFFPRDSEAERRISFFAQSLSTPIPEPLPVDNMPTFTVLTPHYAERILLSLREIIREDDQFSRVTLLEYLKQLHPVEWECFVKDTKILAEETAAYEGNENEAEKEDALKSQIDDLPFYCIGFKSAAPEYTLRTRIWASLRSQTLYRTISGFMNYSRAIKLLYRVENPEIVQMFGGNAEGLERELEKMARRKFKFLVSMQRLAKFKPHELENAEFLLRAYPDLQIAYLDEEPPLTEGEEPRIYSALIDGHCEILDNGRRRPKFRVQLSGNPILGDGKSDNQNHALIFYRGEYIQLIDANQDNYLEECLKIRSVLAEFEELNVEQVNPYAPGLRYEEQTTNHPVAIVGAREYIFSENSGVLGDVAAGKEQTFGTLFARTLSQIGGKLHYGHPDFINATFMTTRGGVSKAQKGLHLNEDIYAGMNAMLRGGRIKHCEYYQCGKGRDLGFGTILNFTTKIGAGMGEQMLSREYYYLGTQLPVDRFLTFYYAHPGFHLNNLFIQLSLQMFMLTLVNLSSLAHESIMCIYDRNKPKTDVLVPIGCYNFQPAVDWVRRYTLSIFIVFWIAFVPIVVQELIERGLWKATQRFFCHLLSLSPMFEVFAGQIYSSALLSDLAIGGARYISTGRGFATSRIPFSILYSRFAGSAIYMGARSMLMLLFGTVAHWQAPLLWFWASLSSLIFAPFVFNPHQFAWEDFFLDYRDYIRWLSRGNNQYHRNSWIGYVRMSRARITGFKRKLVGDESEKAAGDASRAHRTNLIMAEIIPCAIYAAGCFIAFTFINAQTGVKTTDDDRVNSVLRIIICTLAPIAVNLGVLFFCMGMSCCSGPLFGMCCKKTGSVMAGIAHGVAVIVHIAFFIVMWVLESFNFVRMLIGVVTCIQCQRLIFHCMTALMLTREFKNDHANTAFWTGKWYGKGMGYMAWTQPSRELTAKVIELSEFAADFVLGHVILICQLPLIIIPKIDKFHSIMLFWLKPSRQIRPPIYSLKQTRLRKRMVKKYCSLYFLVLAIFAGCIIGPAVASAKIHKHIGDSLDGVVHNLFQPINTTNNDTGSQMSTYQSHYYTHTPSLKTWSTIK
PKC1 tagged at its COOH-terminus with the HA epitope (PKC1^HA), sequence (P24583 whole entry): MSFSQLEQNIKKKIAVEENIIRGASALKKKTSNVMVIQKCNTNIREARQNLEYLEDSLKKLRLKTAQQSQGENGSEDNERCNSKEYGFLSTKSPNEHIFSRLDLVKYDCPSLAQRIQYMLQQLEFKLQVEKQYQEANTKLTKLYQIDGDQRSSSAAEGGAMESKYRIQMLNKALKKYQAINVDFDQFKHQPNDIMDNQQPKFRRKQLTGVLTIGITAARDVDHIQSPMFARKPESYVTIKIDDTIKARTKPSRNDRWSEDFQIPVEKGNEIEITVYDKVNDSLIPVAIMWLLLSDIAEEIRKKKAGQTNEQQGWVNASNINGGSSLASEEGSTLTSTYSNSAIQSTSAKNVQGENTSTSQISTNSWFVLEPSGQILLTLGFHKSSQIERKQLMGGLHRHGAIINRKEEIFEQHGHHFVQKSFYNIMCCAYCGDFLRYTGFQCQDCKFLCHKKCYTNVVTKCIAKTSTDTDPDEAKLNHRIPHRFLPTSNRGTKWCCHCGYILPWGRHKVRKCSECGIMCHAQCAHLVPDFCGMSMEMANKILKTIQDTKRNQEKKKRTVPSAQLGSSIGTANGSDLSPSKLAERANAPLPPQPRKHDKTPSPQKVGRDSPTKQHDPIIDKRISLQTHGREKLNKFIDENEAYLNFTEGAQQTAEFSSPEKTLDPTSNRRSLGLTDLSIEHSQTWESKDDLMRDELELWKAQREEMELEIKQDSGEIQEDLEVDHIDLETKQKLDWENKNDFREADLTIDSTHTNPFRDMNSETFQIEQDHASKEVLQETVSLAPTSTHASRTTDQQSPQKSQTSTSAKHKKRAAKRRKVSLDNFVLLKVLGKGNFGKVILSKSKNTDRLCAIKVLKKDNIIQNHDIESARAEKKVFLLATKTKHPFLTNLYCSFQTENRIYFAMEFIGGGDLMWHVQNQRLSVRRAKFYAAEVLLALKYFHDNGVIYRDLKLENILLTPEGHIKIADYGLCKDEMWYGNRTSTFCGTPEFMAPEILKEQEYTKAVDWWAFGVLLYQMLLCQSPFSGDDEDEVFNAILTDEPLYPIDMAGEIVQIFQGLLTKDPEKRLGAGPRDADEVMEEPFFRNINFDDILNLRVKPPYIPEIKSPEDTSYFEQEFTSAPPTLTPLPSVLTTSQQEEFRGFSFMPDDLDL

Take “Recombinant mutant Rho1 (G19V), constitutively active GST-Rho1”: the “GS activity in the membrane fraction of the cal1-1 mutant” value in data set [1] was “GS activity was restored by the addition of constitutively activated Rho1”. On to Recombinant GST-Cdc42, for which the “Phosphorylation of synthetic Bck1 peptide by PKC1^HA” value in data set [2] is “GST-Cdc42 did not confer cofactor-dependent stimulation on PKC1”.
